Results taken from paper PMC7935881.

Legend:
[1] = target: no-cys-DgkA (cysteine-free Escherichia coli diacylglycerol kinase) (Escherichia coli); test: SDS-PAGE; DgkA refolded/reassembled in buffer (8 M urea, 0.2% SDS, 0.08% E. coli membrane total extracts, 0.96% OG, pH 7.8)
[2] = target: no-cys-DgkA (cysteine-free Escherichia coli diacylglycerol kinase) (Escherichia coli); test: solid-state NMR structure; MAS ssNMR, intra- and inter-monomer PRE distance restraints with CS-Rosetta; DgkA reconstituted in bilayers of E. coli membrane total extracts; 272 K

no-cys-DgkA (cysteine-free Escherichia coli diacylglycerol kinase) (enzyme)
stoichiometry N [1]: 3 | stoichiometry N [2]: 3
